The target in this assay is extracellular domain of HER2 (Homo sapiens, UniProt P04626). Briefly: SPR. For orientation: SPR reads the build-up and loss of mass on a sensor chip optically.

B1: parental Fab (meditope-enabled trastuzumab Fab, Ala175) (Fab, V domains shown)
VH: not shown
VL: DIQMTQSPILLSASVGDRVTITCRASQDVNTAVAWYQQRTNGSPRLLIYSASFLYSGVPSRFSGSRSGTDFTLTISSLQPEDEADYYCQQHYTTPPTFGAGTKVEIK
As for B1, the binding result is “binds”.

B2: 175Cys-Fab (meditope-enabled trastuzumab Fab with Ala175 of the heavy chain changed to cysteine) (Fab, V domains shown)
VH: not shown
VL: B1 VL
In the case of B2, the binding result was “binds”.
